Source: patent publication US20180155692A1

Target: activin-like kinase receptor 3 (ALK3) (human) (UniProt P36894)
Experiment: cell-based or functional assay

Sequence of activin-like kinase receptor 3 (ALK3) (human) (P36894 24-532): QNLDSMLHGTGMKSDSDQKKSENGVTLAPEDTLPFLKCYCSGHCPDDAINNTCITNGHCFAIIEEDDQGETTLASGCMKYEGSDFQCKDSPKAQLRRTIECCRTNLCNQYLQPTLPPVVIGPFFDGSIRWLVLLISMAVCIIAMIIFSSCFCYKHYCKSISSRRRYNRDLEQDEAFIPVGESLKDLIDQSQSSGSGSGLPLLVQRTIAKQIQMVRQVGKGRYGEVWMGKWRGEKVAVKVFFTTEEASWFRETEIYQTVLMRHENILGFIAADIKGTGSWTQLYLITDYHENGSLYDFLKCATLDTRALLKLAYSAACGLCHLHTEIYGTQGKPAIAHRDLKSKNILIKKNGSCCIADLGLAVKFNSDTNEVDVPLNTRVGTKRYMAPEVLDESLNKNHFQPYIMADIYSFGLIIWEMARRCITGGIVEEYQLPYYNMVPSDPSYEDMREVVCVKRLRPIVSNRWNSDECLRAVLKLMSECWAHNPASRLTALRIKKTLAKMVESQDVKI
Sequence of Bone morphogenetic protein 7 (BMP-7) (P18075 293-431 limits assumed): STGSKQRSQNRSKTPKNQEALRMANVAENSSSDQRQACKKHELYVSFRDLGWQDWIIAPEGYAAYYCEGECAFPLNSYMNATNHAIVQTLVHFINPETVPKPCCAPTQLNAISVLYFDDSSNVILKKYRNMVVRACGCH

In the case of “Bone morphogenetic protein 4 (BMP-4) (from UniProt P12644 293-408) (ligand)”, the C-peptide production on hNEPT, fold vs. t=0 (n=6) was 198 fold.
For “Bone morphogenetic protein 7 (BMP-7) (from UniProt P18075 293-431) (ligand)”, the BMP-7-mediated induction of C-peptide compared to t=0 (n=4), BMP-7 alone was 314 fold, the BMP-7-mediated induction of C-peptide compared to t=0 (n=4), in the presence of dorsomorphin (inhibitor of SMAD1/5/8 phosphorylation) was 108 fold and the C-peptide induction on hNEPT, fold vs. t=0 (n=4, comparison with THR-123) was 261 fold. It also gave a C-peptide production on hNEPT, fold vs. t=0 (n=6, comparison with BMP-4) of 156 fold and an insulin expression by qRT-PCR in ALK3+-sorted cells vs. non-BMP-7 treated controls of 1000 fold.
Work on THR-123 (peptide) yielded a C-peptide induction on hNEPT, fold vs. t=0 (n=4) of 318 fold.
